Source: patent US20160237160A1 (Bayer, published 2016)
Values belong to the binder of their own block, whether it stands above or below them.

How the values were obtained:
[1] = target: T1, TPP-2614 (TweakR-ECD-34-68-hIgGFc-His-D47A) (human); experiment: ELISA, PDL-192(TPP-1104) coated at 1 µg/ml, eight-fold diluted HEK293 supernatant with the TWEAKR(34-68)-Fc mutein, anti-HIS-HRP, Amplex Red
T1 construct: also called D47A TWEAKR mutein
Description: S37A, R38A, S40A, W42A, S43A, D45A, D47A, K48A, D51A, S54A, R56A, R58A, P59A, H60A, S61A, D62A, F63A and L65A muteins were expressed in HEK293 cells (black diamonds).
These TWEAKR(34-68)-Fc muteins were expressed in HEK293 cells. To collect dose-response data, IgGs were coated at a concentration of 1 μg/ml in a 384-well Maxisorp ELISA plate and a serial 2fold dilution of the TWEAKR mutein containing supernatant was used as soluble binding partner. Detection was done with anti-HIS-HRP and Amplex Red.

[2] = target: TPP-1988 (hTNFRSF12Aaa28-80-M50A-hIgG1-Fc) (human); experiment: ELISA, TWEAKR-Fc coated 62 ng/ml, biotin-IgG titrated; + means IC50 1 to 150 pM;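 note: biotinylated IgG binding to immobilized TWEAKR-Fc muteins, detected with Streptavidin-HRP and Amplex Red, IC50 derived from fitted dose-response curves of twofold serial dilutions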
Description: (§1) To collect dose-response data, the different TWEAKR-Fc muteins were coated with a low concentration (62 ng/ml) in a 384-well Maxisorb ELISA plate and a serial 2fold dilution of biotinylated IgG starting with a concentration of 100 nM was used as soluble binding partner. Detection was done with Streptavidin-HRP and Amplex Red.
(§2) The dose-response data were fitted and IC50s determined.

[3] = target: T2, TWEAKR (TNFRSF12A, FN14), human, on tumor cell lines (human, UniProt Q9NP84 28-129); experiment: cell-based or functional assay
[4] = target: T3, TPP-2203 (TWEAKR-ECD-34-68-hIgGFc-His) (human); experiment: ELISA, TPP-2203 coated at 1 µg/ml, biotinylated IgG at 0.08 µg/ml (open bar) and 0.3 µg/ml (filled bar), Streptavidin-HRP, Amplex Red
T3 construct: dimeric; also called TWEAKR(34-68)-Fc fusion protein; truncated ectodomain 34-68
Description: (§3) Detection was done with Streptavidin-HRP and Amplex-Red substrate.
(§4) To analyze for binding, 1 μg/ml of the respective dimeric TWEAKR-Fc construct were coated and, 0.3 μg/ml and 0.08 μg/ml of biotinylated IgG were used as soluble binding partner. Detection was done with Streptavidin-HRP and Amplex-Red substrate.

[5] = target: T4, TPP-2202 (TWEAKR-ECD-28-80-hIgGFc-His) (human); experiment: ELISA, TPP-2202 coated at 1 µg/ml, biotinylated IgG at 0.08 µg/ml (open bar) and 0.3 µg/ml (filled bar), Streptavidin-HRP, Amplex Red
T4 construct: dimeric; also called TWEAKR-Fc fusion protein; full ectodomain 28-80
Description: as §3, §4

[6] = target: T2, TWEAKR (TNFRSF12A, FN14), human, on …; experiment: FACS, HT29 cells, 10 ug/ml
Description: (§5) To determine the binding characteristics of the anti-TWEAKR antibodies on mouse and human cancer cell lines, binding was tested by flow cytometry to a panel of cell lines. […] Cells were suspended at approximately 10⁵ cells/well in FACS buffer (PBS without Ca/Mg, containing 3% FCS, Biochrom). Cells were centrifuged (250 g, 5 min, 4° C.) and supernatant discarded. Cells were resuspended in dilutions of the antibodies of interest (10 μg/ml in 80 μl if not indicated otherwise) in FACS buffer, and incubated on ice for 1 h. […] After incubation for 1 h on ice cells were again washed with cold FACS buffer, resuspended in 1000 FACS buffer and analyzed by flow cytometry using a FACS-Array (BD Biosciences). Results are calculated as Geo Mean of fluorescence detected by the antibody of interest subtracted by background fluorescence as measured by detection with the secondary antibody alone. Values are scored according to the following system: Geo Mean−Geo Mean of secondary antibody alone >10: +, >100: ++, >1000: +++, 10000: ++++, close to category border in ( ).

[7] = target: T2, TWEAKR (TNFRSF12A, FN14), human, on …; experiment: FACS, 786-O cells, 10 ug/ml
Description: as §5

[8] = target: T5, TPP-2305 (hTNFRSF12Aaa28-80) (Human, UniProt Q9NP84 28-80); experiment: SPR (Biacore T100), IgG captured, TPP-2305 injected, 1:1 model
T5 construct: monomeric extracellular domain, bought; also called purified recombinant human TWEAKR protein; soluble monomeric TWEAKR
Description: Binding affinities of anti-TWEAKR antibodies were determined by surface plasmon resonance analysis on a Biacore T100 instrument (GE Healthcare Biacore, Inc.). Antibodies were immobilized onto a CM5 sensor chip through an indirect capturing reagent, anti-human IgG(Fc). […] Anti-TWEAKR antibodies were injected at a concentration of 10 μg/ml at 10 μl/min for 10 sec.
Sensorgrams were generated after in-line reference cell correction followed by buffer sample subtraction. The dissociation equilibrium constant (KD) was calculated based on the ratio of association (kₒₙ) and dissociation rated (koff) constants, obtained by fitting sensorgrams with a first order 1:1 binding model.

[9] = target: T2, TWEAKR (TNFRSF12A, FN14), human, on …; experiment: FACS, A375 cells, 10 ug/ml
Description: as §5

[10] = target: T2, TWEAKR (TNFRSF12A, FN14), human, on …; experiment: FACS, NCI-H322 cells, 10 ug/ml
Description: as §5

[11] = target: T2, TWEAKR (TNFRSF12A, FN14), human, on …; experiment: cell-based or functional assay; remark: listed apart in the source
[12] = target: T2, TWEAKR (TNFRSF12A, FN14), human, on …; experiment: FACS, SKOV-3 cells, 10 ug/ml
Description: as §5

[13] = target: T6, TPP-1984 (hTNFRSF12Aaa28-68-CT-His) (human); experiment: ELISA, TPP-1984 coated at 1 µg/ml, biotinylated IgG at 0.08 µg/ml (open bar) and 0.3 µg/ml (filled bar), Streptavidin-HRP, Amplex Red
T6 construct: monomeric ectodomain with HIS6 tag; also called TWEAKR(28-68)-HIS; C-terminally truncated TWEAKR ectodomain
T6 chain: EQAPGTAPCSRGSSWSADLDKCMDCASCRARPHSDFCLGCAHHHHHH
Description: as §3, §4

[14] = target: T2, TWEAKR (TNFRSF12A, FN14), human, on …; experiment: cell-based or functional assay; remark: listed apart in the source
[15] = target: T2, TWEAKR (TNFRSF12A, FN14), human, on …; experiment: FACS, WiDr cells, 10 ug/ml
Description: as §5

[16] = target: T1, TPP-2614 …; experiment: ELISA, IgG coated 1 ug/ml, TWEAKR variant 250 ng/ml, anti-HIS HRP (FIG. 6C)
Description: Antibodies were coated (1 μg/ml), TWEAKR variant was added at 250 ng/ml, detection via anti-HIS HRP. […] Antibodies were coated (1 μg/ml), TWEAKR variant was added 250 ng/ml, detection via anti-HIS HRP.

[17] = target: T7, TPP-1777 (DOG-TNFRSF12Aaa28-80-hIgG1-Fc) (dog); experiment: SPR, TWEAKR-Fc immobilized, IgG injected, bivalent analyte model (avidity mode);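 note: kd derived as the ratio of fitted dissociation to association rate constants, with sensorgrams corrected against a reference flow cell and a buffer blank before fitting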
T7 construct: bivalent antigen; also called dog TWEAKR Fc
Description: (§6) Sensorgrams were generated after in-line reference cell correction followed by buffer sample subtraction. The dissociation equilibrium constant (KD) was calculated based on the ratio of association (kₒₙ₁) and dissociation rated (koff1) constants, obtained by fitting sensorgrams with a bivalent analyte model using Biavaluation Software (version 4.0).

[18] = target: T8, TPP-599 (HUMAN-TNFRSF12Aaa28-80-hIgG1-Fc) (human); experiment: as above
T8 construct: dimeric; also called human TWEAKR Fc; TWEAKR-Fc
Description: as §6

[19] = target: T9, TPP-1778 (PIG-TNFRSF12Aaa28-80-hIgG1-Fc) (pig); experiment: as above
T9 construct: bivalent antigen; also called pig TWEAKR Fc
Description: as §6

[20] = target: T10, TPP-1846 (MAC-TNFRSF12Aaa28-80-hIgG1-Fc) (macaca fascicularis); experiment: as above
T10 construct: bivalent antigen; also called mac fasc TWEAKR Fc
Description: as §6

[21] = target: T11, TPP-1779 (RAT-TNFRSF12Aaa28-80-hIgG1-Fc) (rat); experiment: as above
T11 construct: bivalent antigen; also called rat TWEAKR Fc
Description: as §6

[22] = target: T12, TPP-601 (MURINE-TNFRSF12Aaa28-80-hIgG1-Fc) (murine); experiment: as above
T12 construct: dimeric; also called murine TWEAKR Fc
Description: as §6

[23] = target: TPP-1986 (hTNFRSF12Aaa28-80-T33Q-hIgG1-Fc) (human); experiment: ELISA, TWEAKR-Fc coated 62 ng/ml, biotin-IgG titrated; + means IC50 1 to 150 pM;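 note: biotinylated IgG binding to immobilized TWEAKR-Fc muteins, detected with Streptavidin-HRP and Amplex Red, IC50 derived from fitted dose-response curves of twofold serial dilutions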
Description: as §1, §2

[24] = target: TPP-1989 (hTNFRSF12Aaa28-80-H60K-hIgG1-Fc) (human); experiment: as above
Description: as §1, §2

[25] = target: TPP-1990 (hTNFRSF12Aaa28-80-L65Q-hIgG1-Fc) (human); experiment: as above
Description: as §1, §2

[26] = target: TPP-1987 (hTNFRSF12Aaa28-80-S40R-hIgG1-Fc) (human); experiment: as above
Description: as §1, §2

[27] = target: TPP-2683 (hTNFRSF12Aaa28-80-R56P-hIgG1-Fc) (human); experiment: as above
Description: as §1, §2

[28] = target: T8, TPP-599 …; experiment: ELISA, 2.5 nM biotinylated TWEAKR-Fc coated, soluble Fab, anti-c-Myc detection

binding result [28]: binds
B4: TPP-883 Fab variant G97F of CDR-L3 (Fab, V domains shown)
VH: EVQLLESGGGLVQPGGSLRLSCAASGFTFSPYPMMWVRQAPGKGLEWVSYISPSGGKTHYADSVKGRFTISRDNSKNTLYLQMNSLRAEDTAVYYCARGGDGYFDYFDYWGQGTLVTVSS
VL: DIQMTQSPATLSASVGDRVTITCRASQSISSYLNWYQQKPGKAPKLLIYAASSLQSGVPSRFSGSGSGTDFTLTISSLQPEDFATYYCQQSYSSPFITFGPGTKVEIK

binding result [28]: binds
B5: TPP-883 Fab variant S94T of CDR-L3 (Fab, V domains shown)
VH: EVQLLESGGGLVQPGGSLRLSCAASGFTFSPYPMMWVRQAPGKGLEWVSYISPSGGKTHYADSVKGRFTISRDNSKNTLYLQMNSLRAEDTAVYYCARGGDGYFDYFDYWGQGTLVTVSS
VL: DIQMTQSPATLSASVGDRVTITCRASQSISSYLNWYQQKPGKAPKLLIYAASSLQSGVPSRFSGSGSGTDFTLTISSLQPEDFATYYCQQSYTSPGITFGPGTKVEIK

Continued, binder first:

B1: PDL-192(TPP-1104) (antibody, human IgG1, kappa, V domains shown)
VH: QVELVESGGGLVQPGGSLRLSCAASGFTFSSYWMSWVRQAPGKGLEWVAEIRLKSDNYATHYAESVKGRFTISRDDSKNSLYLQMNSLRAEDTAVYYCTGYYADAMDYWGQGTLVTVSS
VL: DIQMTQSPSSLSASVGDRVTITCRASQSVSTSSYSYMHWYQQKPGKAPKLLIKYASNLESGVPSRFSGSGSGTDFTLTISSLQPEDFATYYCQHSWEIPYTFGGGTKVEIKR
notes: Human IgG1; variable domains from WO2009/020933 with constant region added
binding result [1]: binds | binding result [2]: binds

B2: TPP-2084 (antibody, human IgG1, kappa, V domains shown)
VH: EVQLLESGGGLVQPGGSLRLSCAASGFTFSPYPMMWVRQAPGKGLEWVSYISPSGGSTHYADSVKGRFTISRDNSKNTLYLQMNSLRAEDTAVYYCARGGDTYFDYFDYWGQGTLVTVSS
VL: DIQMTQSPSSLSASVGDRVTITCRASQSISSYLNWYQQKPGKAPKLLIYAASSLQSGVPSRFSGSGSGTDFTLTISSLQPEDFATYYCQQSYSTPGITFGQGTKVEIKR
notes: Human IgG1
% Inhibition of proliferation, 786-O cells, 96h, 100 ug/ml [3]: 68% | % Inhibition of proliferation, A253 cells, 72h, 100 ug/ml [3]: > 100% | % Inhibition of proliferation, HT-29 cells, 24h, 100 ug/ml [3]: 98% | % Inhibition of proliferation, WiDr cells, 96h, 100 ug/ml [3]: 52% | binding result [4]: binds | binding result [5]: binds | GeoMean of Fluorescence minus GeoMean with the secondary antibody only [6]: 750 | GeoMean of Fluorescence minus GeoMean with the secondary antibody only [7]: 16300 | Kd [8]: 27.6 nM | koff [8]: 0.11 s⁻¹ | kon [8]: 4.2e+06 M⁻¹ s⁻¹ | GeoMean of Fluorescence minus GeoMean with the secondary antibody only [9]: 199 | GeoMean of Fluorescence minus GeoMean with the secondary antibody only [10]: 126 | Fold induction of Caspase 3/7, 786-O cells, 100 ug/ml [11]: 1.61 fold | Fold induction of Caspase 3/7, A253 cells, 100 ug/ml [11]: 1.6 fold | Fold induction of Caspase 3/7, HT-29 cells, 100 ug/ml [11]: 2.59 fold | Fold induction of Caspase 3/7, NCI-H322 cells, 100 ug/ml [11]: 1.58 fold | GeoMean of Fluorescence minus GeoMean with the secondary antibody only [12]: 1660 | binding result [13]: binds | IL-8 release from A375 cells at 100 ug/ml, % of the activation by 300 ng/ml TWEAK ligand [14]: 113% | GeoMean of Fluorescence minus GeoMean with the secondary antibody only [15]: 1350 | % binding normalized by wt binding signal [16]: < 5% | Kd [17]: 17 nM | Kd [18]: 16.2 nM | Kd [19]: 34.2 nM | Kd [20]: 23.8 nM | Kd [21]: 21.1 nM | Kd [22]: 4 nM | binding result [23]: binds | binding result [24]: binds | binding result [2]: binds | binding result [25]: binds | binding result [26]: binds | binding result [27]: binds

B3: TPP-883 Fab variant A51Q of CDR-L2 (Fab, V domains shown)
VH: EVQLLESGGGLVQPGGSLRLSCAASGFTFSPYPMMWVRQAPGKGLEWVSYISPSGGKTHYADSVKGRFTISRDNSKNTLYLQMNSLRAEDTAVYYCARGGDGYFDYFDYWGQGTLVTVSS
VL: DIQMTQSPATLSASVGDRVTITCRASQSISSYLNWYQQKPGKAPKLLIYQASSLQSGVPSRFSGSGSGTDFTLTISSLQPEDFATYYCQQSYSSPGITFGPGTKVEIK
binding result [28]: binds
